The values below come from patent US20230416371A1.

Experiment [1] concerns the target human FcγRIIa R (allotype R131) extracellular domain (human) (UniProt P12318). The experiment in a line: SPR Biacore 8K+; KD of G1d divided by KD of this antibody.
Experiment [2] shares this target. Briefly: SPR Biacore 8K+; KD for FcγRIIb divided by KD for this FcγR.
Experiment [3] shares this target. Briefly: SPR Biacore 8K+, 25 C, antibody captured, FcγR as analyte, 1:1 Langmuir model.

human FcγRIIa R (allotype R131) extracellular domain (human), sequence (P12318 34-217 H167R): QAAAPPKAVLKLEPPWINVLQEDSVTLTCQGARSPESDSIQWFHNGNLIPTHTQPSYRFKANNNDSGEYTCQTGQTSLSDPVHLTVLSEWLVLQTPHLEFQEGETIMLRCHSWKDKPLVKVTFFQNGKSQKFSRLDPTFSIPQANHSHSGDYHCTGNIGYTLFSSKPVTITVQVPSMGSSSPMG
EGL-GASDALIE (H240-GASDALIE/L73-k0) (antibody), sequence (heavy): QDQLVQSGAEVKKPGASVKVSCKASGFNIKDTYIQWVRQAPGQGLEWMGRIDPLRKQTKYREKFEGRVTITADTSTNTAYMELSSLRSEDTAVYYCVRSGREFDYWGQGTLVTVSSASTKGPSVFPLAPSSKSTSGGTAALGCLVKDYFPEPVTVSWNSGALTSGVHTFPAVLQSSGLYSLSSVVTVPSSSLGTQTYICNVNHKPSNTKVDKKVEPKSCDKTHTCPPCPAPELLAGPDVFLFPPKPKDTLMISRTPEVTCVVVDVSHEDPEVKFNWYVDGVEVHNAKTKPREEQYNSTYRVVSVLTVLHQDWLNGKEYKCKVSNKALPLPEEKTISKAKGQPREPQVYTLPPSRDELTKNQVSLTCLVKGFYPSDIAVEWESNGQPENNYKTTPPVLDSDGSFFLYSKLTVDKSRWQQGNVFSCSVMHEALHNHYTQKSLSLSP
EGL-GASDALIE (H240-GASDALIE/L73-k0) (antibody), sequence (light): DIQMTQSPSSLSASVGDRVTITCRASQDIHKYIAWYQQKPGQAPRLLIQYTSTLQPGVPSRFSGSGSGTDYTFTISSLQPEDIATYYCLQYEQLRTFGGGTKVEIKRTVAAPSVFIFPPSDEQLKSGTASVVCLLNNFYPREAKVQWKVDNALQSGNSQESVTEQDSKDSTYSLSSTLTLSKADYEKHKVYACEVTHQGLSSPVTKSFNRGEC
EGL-afucosyl (H240-G1d/L73-k_glycomab) (antibody), sequence (heavy): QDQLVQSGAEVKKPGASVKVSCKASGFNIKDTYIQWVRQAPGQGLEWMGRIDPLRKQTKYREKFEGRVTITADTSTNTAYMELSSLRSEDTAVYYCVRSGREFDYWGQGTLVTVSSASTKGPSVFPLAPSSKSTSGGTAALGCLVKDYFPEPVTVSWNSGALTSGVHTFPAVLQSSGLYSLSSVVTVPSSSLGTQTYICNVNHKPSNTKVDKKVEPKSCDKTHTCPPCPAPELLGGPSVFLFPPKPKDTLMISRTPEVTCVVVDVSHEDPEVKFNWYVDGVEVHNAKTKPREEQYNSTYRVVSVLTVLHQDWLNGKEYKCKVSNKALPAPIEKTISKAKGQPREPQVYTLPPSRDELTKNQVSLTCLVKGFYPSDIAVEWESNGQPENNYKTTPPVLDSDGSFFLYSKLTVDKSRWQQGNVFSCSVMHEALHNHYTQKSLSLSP
EGL-afucosyl (H240-G1d/L73-k_glycomab) (antibody), sequence (VL): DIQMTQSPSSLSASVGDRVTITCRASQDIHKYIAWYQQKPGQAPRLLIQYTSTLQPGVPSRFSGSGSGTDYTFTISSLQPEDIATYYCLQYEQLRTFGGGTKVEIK

Regarding “EGL-GASDALIE (H240-GASDALIE/L73-k0) (antibody)”, the Relative value to KD between G1d and hFcγRs in experiment [1] came out at 10.3 times. Also, the A/I ratio (KD for FcγRIIb divided by KD for each FcγR) in experiment [2] stood at 16.5. Besides, in experiment [3], the equilibrium dissociation constant (Kd) came out at 161 nM.
The corresponding values for “EGL-afucosyl (H240-G1d/L73-k_glycomab) (antibody)” are 1.8 times, 6 and 946 nM.
